Test results published in patent US20030162734.

Tests used:
[1] = molecular target: DENN-JBD (JNK binding domain region of DENN lacking the NLS and DD regions, fused to the C-terminus of EGFP) (UniProt Q8WXG6)
[2] = molecular target: GFP-DENN (full length DENN/MADD fused to the C-terminus of EGFP) (UniProt Q8WXG6)

JNK (c-Jun N-terminal kinase), endogenous in NSC19 cells; p54 and p46 isoforms of phosphorylated JNK
p54 band of phosphorylated JNK on Western immunoblot, NSC19 clones, 24 h Aβ exposure [1]: DENN and DENN-JBD affected 3 to 4-fold increase in the p54 band with Aβ exposure
phosphorylated c-Jun (Ser73) on immunoblot, NSC19 clones [1]: Expression of ΔMEKK1, DENN, DENN-CT and DENN-JBD showed sustained levels of phosphorylated c-Jun
p54 band of phosphorylated JNK on Western immunoblot, NSC19 clones, 24 h Aβ exposure [2]: DENN and DENN-JBD affected 3 to 4-fold increase in the p54 band with Aβ exposure
